Assay results: patent US20130266566A1 (AbbVie / Abbott, published 2013)

T1: rat PAI-1 (rat, UniProt P20961 24-402)
T1 sequence: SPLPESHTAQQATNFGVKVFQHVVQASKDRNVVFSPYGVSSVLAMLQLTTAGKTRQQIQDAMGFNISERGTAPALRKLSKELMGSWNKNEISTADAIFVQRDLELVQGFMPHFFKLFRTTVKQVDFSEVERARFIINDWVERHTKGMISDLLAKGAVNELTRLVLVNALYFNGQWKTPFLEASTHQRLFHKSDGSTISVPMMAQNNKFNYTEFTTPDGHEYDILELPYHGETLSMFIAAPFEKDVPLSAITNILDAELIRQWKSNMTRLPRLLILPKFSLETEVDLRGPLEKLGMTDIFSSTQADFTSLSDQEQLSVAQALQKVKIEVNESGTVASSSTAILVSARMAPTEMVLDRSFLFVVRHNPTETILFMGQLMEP

T2: mouse PAI-1 (mouse, UniProt P22777 24-401)
T2 sequence: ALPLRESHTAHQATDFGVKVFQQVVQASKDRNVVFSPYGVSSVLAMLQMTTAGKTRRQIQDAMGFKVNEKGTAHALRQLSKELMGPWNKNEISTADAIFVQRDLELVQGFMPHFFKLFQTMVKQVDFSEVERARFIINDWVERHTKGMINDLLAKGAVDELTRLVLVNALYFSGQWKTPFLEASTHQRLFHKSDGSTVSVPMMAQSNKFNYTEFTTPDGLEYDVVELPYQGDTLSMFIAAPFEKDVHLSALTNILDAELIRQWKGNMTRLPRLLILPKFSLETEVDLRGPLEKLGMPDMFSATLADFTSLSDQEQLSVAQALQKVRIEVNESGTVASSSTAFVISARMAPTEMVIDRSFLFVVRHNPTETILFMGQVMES

T3: rabbit PAI-1 (rabbit)
T3 chain: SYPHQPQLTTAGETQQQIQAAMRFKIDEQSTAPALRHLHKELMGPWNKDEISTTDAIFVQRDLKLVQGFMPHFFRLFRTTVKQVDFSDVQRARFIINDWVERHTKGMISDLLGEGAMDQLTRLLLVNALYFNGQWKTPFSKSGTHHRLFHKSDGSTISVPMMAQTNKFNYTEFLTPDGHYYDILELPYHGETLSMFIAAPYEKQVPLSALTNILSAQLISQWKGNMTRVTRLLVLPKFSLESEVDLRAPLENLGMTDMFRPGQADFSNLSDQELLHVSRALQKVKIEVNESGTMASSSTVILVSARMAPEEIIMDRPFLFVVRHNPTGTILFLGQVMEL


How the values were obtained:
rat PAI-1 [1] = target: T1, rat PAI-1; assay: cell-based or functional assay
cynomolgus PAI-1 = cynomolgus PAI-1 (cynomolgus, UniProt P05121 24-402 (human entry), limits assumed); assay: cell-based or functional assay
rat PAI-1 [2] = target: T1, rat PAI-1; assay: cell-based or functional assay; remark: listed apart in the source
mouse PAI-1 [3] = target: T2, mouse PAI-1; assay: cell-based or functional assay
[4] = target: T4, active human PAI-1, recombinant, wild-type, non-glycosylated (E. coli) (human, UniProt P05121 24-402); assay: cell-based or functional assay
mouse PAI-1 [5] = target: T2, mouse PAI-1; assay: cell-based or functional assay; remark: listed apart in the source
[6] = target: T4, active human PAI-1, recombinant, …; assay: cell-based or functional assay; remark: listed apart in the source
rabbit PAI-1 = target: T3, rabbit PAI-1; assay: competition ELISA, IgG on plate, biotinylated active human PAI-1 against titrated unlabelled competitor

Chromogenic (IC50 in nM) rat (rat PAI-1 [1]) [nM]	Chromogenic (IC50 in nM) cyno (cynomolgus PAI-1) [nM]	HT-1080 Exo PAI-1 (IC50 in nM) rat (rat PAI-1 [2]) [nM]	HT-1080 Exo PAI-1 (IC50 in nM) mouse (mouse PAI-1 [3]) [nM]	HT-1080 Exo PAI-1 (IC50 in nM) human [4] [nM]	Chromogenic IC50 ratio rat/human (rat PAI-1 [1]) [fold]	Chromogenic IC50 ratio cyno/human (cynomolgus PAI-1) [fold]	Chromogenic (IC50 in nM) mouse (mouse PAI-1 [5]) [nM]	Chromogenic IC50 ratio mouse/human (mouse PAI-1 [5]) [fold]	Chromogenic (IC50 in nM) human [6] [nM]	IC50 ratio rabbit/wt (rabbit PAI-1) [fold]	Binder
23.1	0.8	52	22	28	–	–	–	–	–	–	Antibody 14 scFv (scFv) QVQLQQSGAEVKKPGSSVKVSCKASGGTFSSYAISWVRQAPGQGLEWMGGIIPTFGTANYAQKFQGRVTITADESTSTAYMELSGLRSEDTAVYYCAREKRQWLEGHFDYWGRGTLVTVSSDIQMTQSPSFLSASIGDRVTITCRASEGIYHNLAWYQQKPGKAPKLLIYRASSLASGAPSRFSGSGSGTDFTFTISSLQPDDFATYYCQQYSNYPLTFGGGTKLEIK
49.8	2.2	33.8	16.4	18.8	–	–	–	–	–	–	Antibody 27 scFv (scFv) QVQLQQSGAEVKKPGSSVKVSCKASGGAFSSYAISWVRQAPGQGLEWMGGIIPTFGTANYAQKFQGRVTITADESTSTAYMELSGLRSEDTAVYYCAREKRQWLEGHFDYWGRGTPVTVSSDIQMTQSPSFLSASIGDRVTITCRASEGIYHNLAWYQQKPGKAPKLLIYRASSLASGAPSRFSGSGSGTDFTLTISSLQPDDFATYYCQQYSNYPLTFGGGTKLEIK
64.2	2.2	57	37	36	8.9	0.3	66.9	9.3	7.2	–	Antibody 15 scFv (scFv) QVQLQQSGAEVKKPGSSVKVSCKASGGTFSSYAISWVRQAPGQGLEWMGGIIPTFGTANYAQKFQGRVTITADESTSTAYMELSGLRSEDTAVYYCAREKRQWLEGHFDYWGRGTPVTVSSDIQMAQSPSFLSASIGDRVTITCRASEGIYHNLAWYQQKPGKAPKLLIYRASSLASGAPSRFSGSGSGTDFTLTISSLQPDDFATYYCQQYSNYPLTFGGGTKLEIR
29.7	0.7	52.7	21	23	–	–	–	–	–	–	Antibody 09 scFv (scFv) QVQLQQSGAEVKKPGSSVKVSCKASGGTFSSYAISWVRQAPGQGLEWMGGIIPAFDTANYAQKFQGRVTITADESTSTAYMELSGLRSEDTAVYYCAREKRQWLEGHFDYWGRGTPVTVSSDIQMTQSPSFLSASIGDRVTITCQASEGIYHNLAWYQQKPGKAPKLLIYRASSLASGAPSRFSGSGSGTDFTLTISSLQPDDFATYYCQQYSNYPLTFGGGTKLEIK
37.1	31.6	–	–	–	0.5	0.4	48.2	0.6	74.6	–	Antibody 06 scFv (scFv) QVQLQQSGAEVKKPGSSVKVSCKASGGTFSSYAISWVRQAPGQGLEWMGGIIPTFGTANYAQKFQGRVTITADESTSTAYMELSGLRSEDTAVYYCAREKRQWLEGHFDYWGRGTPVTVSSDIQMTQSPSFLSASIGDRVTITCRASEGIYHELAWYQQKPGKAPKLLIYRASSLASGAPSRFSGSGSGTDFTLTISSLQPDDFATYYCQQYSNYPLTFGRGTKLEIK
–	1.3	42.4	18.1	19.1	–	–	4.9	–	–	–	Antibody 20 scFv (scFv) QVQLQQSGAEVKKPGSSVKVSCKASGGTFSSYAISWVRQAPGQGLEWMGGIIPTFGTANYAQKFQGRVTITADESTSTAYMELSSLRSEDTAVYYCAREKRQWLEGHFDYWGRGTLVTVSSDIQMTQSPSTLSASVGDRVTITCRASEGIYHELAWYQQKPGKAPKLLIYRASSLASGVPSRFSGSRSGTEFTLTISSLQPDDFATYYCQQYSDYPLTFGGGTKVEIK
296	0.5	–	–	–	132	0.2	334	149	2.2	–	Antibody 10 scFv (scFv) QVQLQQSGAEVKKPGSSVKVSCKASGGTFSSYAISWVRQAPGQGLEWMGGIIPTFGTANYAQKFQGRVTITADESTSTAYMELSSLRSEDTAVYYCAREKRQWLEGHFDYWGRGTPVTVSSDIQMTQSPSFLSASIGDRVAITCRASEGIYHSLAWYQQKPGKAPKLLIYRASSLASGAPSRFSGSGSGTDFTLTISSLQPDDFATYYCQQYSNYPLTFGGGTRLEIK
91	117	–	–	–	0.5	0.6	143	0.8	187	–	Antibody 07 scFv (scFv) QVQLQQSGAEVKKPGSSVKVSCKASGGTFSSYAISWVRQAPGQGLEWVGGIIPTFGTANYAQKFQGRVTITADESTSTAYMELSGLRSEDTAVYYCAREKRQWLEGHFDYWGRGTPVTVSSDIQMAQSPSFLSASIGDRVTITCRASEGIYHELAWYQQKPGKAPKLLIYRASSLASGAPSRFSGSGSGTDFTLTISSLQPDDFATYYCQQYSNYPLTFGGGTKLEIK
–	–	–	–	–	–	–	–	–	–	9	Antibody 01 IgG4, not germlined (antibody, V domains shown, IgG4; also called Ab 01) VH: QVQLVQSGAEVKKPGSSVKVSCKASGGTFSSYAISWVRQAPGQGLEWMGGIIPIFGTANYAQKFQGRVTITADESTSTAYMELSSLRSEDTAVYYCAREKRQWLEGHFDYWGRGTLVTVSS VL: DIQMTQSPSTLSASVGDRVTITCRASEGIYRSLAWYQQKPGKAPKLLIYKASSLASGVPSRFSGSGSGTEFTLTISSLQPDDFATYYCQQYSNYPLTFGGGTKVEIK
–	–	–	–	–	–	–	–	–	–	4.8	Antibody 02 IgG4, not germlined (antibody, V domains shown, IgG4; also called Ab 02) VH: QVQLVQSGAEVKKPGSSVKVSCKASGGTFSSYAISWVRQAPGQGLEWMGGIIPTFGTANYAQKFQGRVTITADESTSTAYMELSSLRSEDTAVYYCAREKRQWLEGHFDYWGRGTLVTVSS VL: DIQMTQSPSTLSASVGDRVTITCRASEGIYHSLAWYQQKPGKAPKLLIYKASSLASGVPSRFSGSGSGTEFTLTISSLQPDDFATYYCQQYSDYPLTFGGGTKVEIK
–	–	–	–	–	–	–	–	–	–	7.9	Antibody 16 IgG1, not germlined (antibody, V domains shown, IgG1; also called Ab 16) VH: QVQLVQSGAEVKKPGSSVKVSCKASGGTFSSYAISWVRQAPGQGLEWMGGIIPTFGTANYAQKFQGRVTITADESTSTAYMELSSLRSEDTAVYYCAREKRQWLEGHFDYWGRGTLVTVSS VL: DIQMTQSPSTLSASVGDRVTITCRASESIYHSLAWYQQKPGKAPKLLIYKASSLASGVPSRFSGSRSGTEFTLTISSLQPDDFATYYCQQYSNYPLTFGGGTKVEIK
208	1.2	–	34.5	23.9	60.5	0.4	28.3	8.2	3.4	–	Antibody 01 scFv (scFv) QVQLVQSGAEVKKPGSSVKVSCKASGGTFSSYAISWVRQAPGQGLEWMGGIIPIFGTANYAQKFQGRVTITADESTSTAYMELSSLRSEDTAVYYCAREKRQWLEGHFDYWGRGTLVTVSSDIQMTQSPSTLSASVGDRVTITCRASEGIYRSLAWYQQKPGKAPKLLIYKASSLASGVPSRFSGSGSGTEFTLTISSLQPDDFATYYCQQYSNYPLTFGGGTKVEIK
